This note sets out measurements from PMC12522135 (2025).

The target of one assay is mouse serum albumin (mouse, UniProt P07724 25-608). The assay can be described thus: ELISA. (An ELISA detects its analyte on a solid surface through an enzyme-linked reagent.)
The target in a further assay is human serum albumin (human, UniProt P02768 25-609). The assay can be described thus: ELISA.

mouse serum albumin, sequence (P07724 25-608): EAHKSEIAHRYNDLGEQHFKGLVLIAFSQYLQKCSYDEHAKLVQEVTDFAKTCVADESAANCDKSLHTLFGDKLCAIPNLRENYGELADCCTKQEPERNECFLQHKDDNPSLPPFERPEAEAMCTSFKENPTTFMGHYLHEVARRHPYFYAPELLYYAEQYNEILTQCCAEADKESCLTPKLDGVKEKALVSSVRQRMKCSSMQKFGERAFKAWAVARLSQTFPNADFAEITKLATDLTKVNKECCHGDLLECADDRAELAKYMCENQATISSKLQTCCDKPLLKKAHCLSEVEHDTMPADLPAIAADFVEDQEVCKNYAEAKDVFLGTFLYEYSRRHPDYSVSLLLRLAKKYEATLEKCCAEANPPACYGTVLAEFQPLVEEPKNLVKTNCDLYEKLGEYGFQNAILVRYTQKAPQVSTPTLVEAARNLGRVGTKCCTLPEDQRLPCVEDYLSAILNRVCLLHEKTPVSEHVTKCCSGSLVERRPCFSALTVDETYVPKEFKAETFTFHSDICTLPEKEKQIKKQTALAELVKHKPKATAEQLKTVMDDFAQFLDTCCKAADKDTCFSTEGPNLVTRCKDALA

B1: HEX-D3-ASA (designed binder)
chain: DLGKKLLEAARAGQDDEVRELLKAGADVNAKDYFSHTPLHLAARNGHLKIVEVLLKAGADVNAKDFAGKTPLHLAANEGHLEIVEVLLKAGADVNAQDIFGKTPADIAADAGHEDIAEVLQKAAGGGSGGGSGGGSGGGSGELKAIAQELKAIAKELKAIAWELKAIAQGAGGGGSGGGSGGGSGGGSDLGKKLLQAARAGQLDEVRELLKAGADVNAKDQEGITPLHVAAHQGHLEIVEVLLKAGADVNAKDVWGRTPLHLAAWRGHLEIVEVLLKAGADVNAKDHAGATPLHAAALSGHLEIVEVLLKAGADVNAQDKSGKTPADLAARAGHQDIAEVLQKAA
Take B1: the dissociation constant Kd (usually the concentration at which binding is half-saturated) with mouse serum albumin amounted to 0.0244 µM; with human serum albumin it was 0.00282 µM.

B2: Bilayer HEX-D3-ASA (designed binder)
chain: DLGKKLLQAARAGQLDEVRELLKAGADVNAKDQEGITPLHVAAHQGHLEIVEVLLKAGADVNAKDVWGRTPLHLAAWRGHLEIVEVLLKAGADVNAKDHAGATPLHAAALSGHLEIVEVLLKAGADVNAQDKSGKTPADLAARAGHQDIAEVLQKAAGGGSGGGSGGGSGGGSDLGKKLLEAARAGQDDEVRELLKAGADVNAKDYFSHTPLHLAARNGHLKIVEVLLKAGADVNAKDFAGKTPLHLAANEGHLEIVEVLLKAGADVNAQDIFGKTPADIAADAGHEDIAEVLQKAAGGGSGGGSGGGSGGGSGELKAIAQELKAIAKELKAIAWELKAIAQGAGGGGSGGGSGGGSGGGSDLGKKLLQAARAGQLDEVRELLKAGADVNAKDQEGITPLHVAAHQGHLEIVEVLLKAGADVNAKDVWGRTPLHLAAWRGHLEIVEVLLKAGADVNAKDHAGATPLHAAALSGHLEIVEVLLKAGADVNAQDKSGKTPADLAARAGHQDIAEVLQKAAGGGSGGGSGGGSGGGSDLGKKLLQAARAGQLDEVRELLKAGADVNAKDQEGITPLHVAAHQGHLEIVEVLLKAGADVNAKDVWGRTPLHLAAWRGHLEIVEVLLKAGADVNAKDHAGATPLHAAALSGHLEIVEVLLKAGADVNAQDKSGKTPADLAARAGHQDIAEVLQKAA
Take B2: the dissociation constant (Kd) with mouse serum albumin stood at 0.124 µM; with human serum albumin it was 0.0079 µM.
